Assay results as given in US9303249B2, “High concentration α-glucosidase compositions for the treatment of Pompe disease” (Amicus Therapeutics, Inc., priority 2012, dated 2016).

Key:
Assay type in all cases: in vivo, mouse
[1] = tested on: GAA KO mice; experiment: Tissue rhGAA activity after repeat SQ dosing between the shoulder blades (Example 13); conditions: Lumizyme 20 mg/kg +/− 1-DNJ 30 mg/kg SQ, 4 doses (Mon and Thu), 3 days after last dose
Procedure: 12-week old male GAA KO mice in groups of 7 were used in the present study. Each group of mice was administered one of the following treatments:
(2) Lumizyme® alone (20 mg/kg) delivered subcutaneously (SQ); or
(3) Co-formulated Lumizyme® (20 mg/kg) and 1-DNJ (30 mg/kg) SQ.
Each of the treatments were administered to their respective treatment group for a period of 2 weeks. The treatments were administered on Monday and Thursday of each week. SQ injections were administered between the shoulder blades of each mouse receiving treatment. A total of 4 doses was administered to each study animal. Diphenhydramine was administered intraperitoneally (IP) before the 3rd and 4th doses.
Tissue samples were collected to determine rhGAA uptake 3 days following the last dose of the study (i.e., 3 days post dose 4). Tissue samples included heart, diaphragm, tongue, brain, spleen, liver, biceps, triceps, quadriceps, soleus, gastrocnemius, ventral skin and dorsal skin from the SQ injection site. Tissue samples were also collected to determine glycogen concentration 14 days following the last dose of the study (i.e., 14 days post dose 4).

[2] = tested on: GAA KO mice; experiment: Tissue GAA activity after repeat SQ with varying 1-DNJ (Example 16); conditions: Lumizyme 20 mg/kg SQ alone, 4 doses, 3 days after last dose
Procedure: (§1) 14-week old male GAA KO mice in groups of 7 were used in the present study. Each group of mice was administered one of the following treatments:
(2) Lumizyme® alone (20 mg/kg) delivered subcutaneously (SQ);
(3) Co-formulated Lumizyme® (20 mg/kg) and 1-DNJ (3 mg/kg) SQ.
(4) Co-formulated Lumizyme® (20 mg/kg) and 1-DNJ (10 mg/kg) SQ.
(5) Co-formulated Lumizyme® (20 mg/kg) and 1-DNJ (30 mg/kg) SQ.
(§2) Each of the treatments was administered to their respective treatment group for a period of 2 weeks. The treatments were administered on Monday and Thursday of each week. SQ injections were administered between the shoulder blades of each mouse receiving treatment. A total of 4 doses were administered to each study animal.
(§3) Tissue samples were collected to determine rhGAA uptake 3 days following the last dose of the study (i.e., 3 days post dose 4). Tissue samples included heart, tongue, diaphragm, triceps, quads, gastrocnemius, ventral skin and dorsal skin from the SQ injection site. Tissue samples were also collected to determine glycogen concentration 14 days following the last dose of the study (i.e., 14 days post dose 4).
(§4) FIGS. 47-54 show tissue GAA activity 3 days following the final administration, and glycogen levels 14 days following the final administration. GAA activities in tissues were determined using a 4-MUG fluorogenic substrate assay. Glycogen levels were determined using a glycogen assay (see Example 9 for method). Lumizyme® alone administered subcutaneously led to uptake of enzyme in all investigated tissues following repeat administrations.

[3] = tested on: GAA KO mice; experiment: Tissue glycogen reduction after repeat SQ with varying 1-DNJ (Example 16); conditions: Lumizyme 20 mg/kg SQ alone, 4 administrations, 14 days after last
Procedure: as §1, §2, §3, §4

Substance: Lumizyme®: alglucosidase alfa, recombinant human acid α-glucosidase from Genzyme Corporation
- rhGAA activity uptake ([1]; Biceps): 56.0 nmol/mg/h
- rhGAA activity uptake ([1]; Diaphragm): 4.2 nmol/mg/h
- rhGAA activity uptake ([1]; Gastrocnemius): 2.0 nmol/mg/h
- rhGAA activity uptake ([1]; Heart): 1.9 nmol/mg/h
- rhGAA activity uptake ([1]; Quadriceps): 2.1 nmol/mg/h
- rhGAA activity uptake ([1]; Skin): 75 nmol/mg/h
- rhGAA activity uptake ([1]; Soleus): 2.7 nmol/mg/h
- rhGAA activity uptake ([1]; Tongue): 2.7 nmol/mg/h
- rhGAA activity uptake ([1]; Triceps): 88.0 nmol/mg/h
- GAA Activity ([2]; Biceps): 45.9 nmol/mg/h
- GAA Activity ([2]; Diaphragm): 10.6 nmol/mg/h
- GAA Activity ([2]; Gastrocnemius): 1 nmol/mg/h
- GAA Activity ([2]; Heart): 1.9 nmol/mg/h
- GAA Activity ([2]; Quadriceps): 1.3 nmol/mg/h
- GAA Activity ([2]; Skin): 43.9 nmol/mg/h
- GAA Activity ([2]; Soleus): 0.9 nmol/mg/h
- GAA Activity ([2]; Tongue): 2.3 nmol/mg/h
- GAA Activity ([2]; Triceps): 151.3 nmol/mg/h
- Glycogen (% Reduction) ([3]; Biceps): 45%
- Glycogen (% Reduction) ([3]; Diaphragm): 8%
- Glycogen (% Reduction) ([3]; Gastrocnemius): 10%
- Glycogen (% Reduction) ([3]; Heart): 15%
- Glycogen (% Reduction) ([3]; Quadriceps): 9%
- Glycogen (% Reduction) ([3]; Skin): 15%
- Glycogen (% Reduction) ([3]; Tongue): 10%
- Glycogen (% Reduction) ([3]; Triceps): 64%
